For one molecule, DF, degree of prepulse facilitation, free NTB with Gβγ and conversion to constitutively reluctant channels, free NTB with Gβγ results are on record in patent publication US20080279864A1.

The assay deals with N-type (CaV2.2) Ca2+ channel (α1B with β2a and α2δ) in HEK293 cells (human; rat), Q00975. Description: cell-based or functional assay.
N-type (CaV2.2) Ca2+ channel (α1B with β2a and α2δ) in HEK293 cells (human; rat), Q00975, sequence (P54290 25-1091, stated change not applied, chain 3 of 2, other chains not shown): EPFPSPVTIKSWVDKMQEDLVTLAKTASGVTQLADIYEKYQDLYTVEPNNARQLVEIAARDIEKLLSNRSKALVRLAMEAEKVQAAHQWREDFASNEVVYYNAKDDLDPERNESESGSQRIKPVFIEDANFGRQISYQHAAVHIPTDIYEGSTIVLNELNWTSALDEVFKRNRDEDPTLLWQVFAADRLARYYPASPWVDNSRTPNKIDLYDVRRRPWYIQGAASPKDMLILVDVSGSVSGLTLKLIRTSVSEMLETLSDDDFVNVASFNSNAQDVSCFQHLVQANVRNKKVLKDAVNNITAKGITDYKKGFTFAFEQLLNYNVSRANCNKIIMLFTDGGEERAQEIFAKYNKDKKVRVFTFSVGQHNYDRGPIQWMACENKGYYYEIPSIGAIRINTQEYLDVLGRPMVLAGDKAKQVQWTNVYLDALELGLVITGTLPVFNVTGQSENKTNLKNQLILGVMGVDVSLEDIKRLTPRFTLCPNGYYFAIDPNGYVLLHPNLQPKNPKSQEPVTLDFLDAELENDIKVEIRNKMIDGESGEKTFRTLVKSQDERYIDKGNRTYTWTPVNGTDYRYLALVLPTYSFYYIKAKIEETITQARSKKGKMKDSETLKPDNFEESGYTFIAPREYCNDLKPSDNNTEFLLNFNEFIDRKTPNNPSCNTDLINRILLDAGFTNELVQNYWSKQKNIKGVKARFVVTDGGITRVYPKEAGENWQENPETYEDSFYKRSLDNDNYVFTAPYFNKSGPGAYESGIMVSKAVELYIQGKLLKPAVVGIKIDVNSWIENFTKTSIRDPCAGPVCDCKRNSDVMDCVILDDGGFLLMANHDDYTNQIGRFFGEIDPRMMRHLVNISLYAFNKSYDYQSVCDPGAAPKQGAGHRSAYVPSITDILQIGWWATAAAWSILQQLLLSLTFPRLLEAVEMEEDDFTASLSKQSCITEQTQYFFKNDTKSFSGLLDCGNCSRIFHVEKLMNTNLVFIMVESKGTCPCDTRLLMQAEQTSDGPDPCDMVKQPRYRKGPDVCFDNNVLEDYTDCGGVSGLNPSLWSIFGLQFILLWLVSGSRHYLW

B1: free NTB peptide (residues 1-95, without CFP fusion) (peptide)
peptide: MVRFGDELGGRYGGPGGGERARGGGAGGAGGPGPGGLQPGQRVLYKQSIAQRARTMALYNPIPVKQNCFTVNRSLFVFSEDNVVRKYAKRITEWP
On to B1, for which the DF, degree of prepulse facilitation, free NTB with Gβγ was determined as 4 and the conversion to constitutively reluctant channels, free NTB with Gβγ is 75%.
